This note sets out measurements from patent publication US20210230570.

Data set [1] has as its target Factor X (FX), P00742.
The target in data set [2] is Antithrombin III (plasma purified human AT-III, Molecular Innovations), as AT-III/UFH complex.
Data set [3] has as its target plasma purified human antithrombin III (AT-III) in complex with full-length unfractionated heparin (UFH).

By KM is commonly meant the concentration of substrate that gives half-maximal velocity.

Chain of Factor X (FX), P00742 (P00742 whole entry, looked up): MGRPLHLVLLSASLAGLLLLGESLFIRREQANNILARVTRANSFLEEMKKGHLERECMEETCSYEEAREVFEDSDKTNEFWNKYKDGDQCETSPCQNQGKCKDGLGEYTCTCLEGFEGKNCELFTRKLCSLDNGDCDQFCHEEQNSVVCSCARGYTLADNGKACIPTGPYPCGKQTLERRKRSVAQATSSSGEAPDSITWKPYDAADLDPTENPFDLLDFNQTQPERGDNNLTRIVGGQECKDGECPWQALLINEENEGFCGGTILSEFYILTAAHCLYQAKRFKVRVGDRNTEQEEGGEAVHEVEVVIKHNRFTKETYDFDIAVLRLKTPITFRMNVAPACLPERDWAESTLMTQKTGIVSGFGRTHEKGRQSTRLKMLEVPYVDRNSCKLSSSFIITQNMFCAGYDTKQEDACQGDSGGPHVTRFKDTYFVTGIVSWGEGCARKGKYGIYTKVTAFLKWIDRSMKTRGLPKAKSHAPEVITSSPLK

B1: FIXa-K247N/N249S/N260S (protein)
chain 1: YNSGKLEEFVQGNLERECMEEKCSFEEAREVFENTERTTEFWKQYVDGDQCESNPCLNGGSCKDDINSYECWCPFGFEGKNCELDVTCNIKNGRCEQFCKNSADNKVVCSCTEGYRLAENQKSCEPAVPFPCGRVSVSQTSKLTR
chain 2: VVGGEDAKPGQFPWQVVLNGKVDAFCGGSIVNEKWIVTAAHCVETGVKITVVAGEHNIEETEHTEQNRSVIRIIPHHNYSAAINKYNHDIALLELDEPLVLNSYVTPICIADKEYTNIFLKFGSGYVSGWGRVFHKGRSALVLQYLRVPLVDRATCLRSTKFTIYNNMFCAGFHEGGRDSCQGDSGGPHVTEVEGTSFLTGIISWGEECAMKGKYGIYTKVSRYVNWIKEKTKLT
Consider B1, for which, in data set [1], the KM (nM); Catalytic activity of FIXa variants (KM) turned out to be 114 nM and the kcat of FX activation by FIXa in the Xase complex (FVIIIa, PC/PS vesicles, Ca2+) came out at 3.3 s⁻¹. In data set [2], this protein showed a K0.5-mut/K0.5-wt (against Catalyst Biosciences WT FIXa) of 8.1.

B2: FIXa R318Y/R338E/N346D/R403E/E410N (protein)
chain 1: YNSGKLEEFVQGNLERECMEEKCSFEEAREVFENTERTTEFWKQYVDGDQCESNPCLNGGSCKDDINSYECWCPFGFEGKNCELDVTCNIKNGRCEQFCKNSADNKVVCSCTEGYRLAENQKSCEPAVPFPCGRVSVSQTSKLTR
chain 2: VVGGEDAKPGQFPWQVVLNGKVDAFCGGSIVNEKWIVTAAHCVETGVKITVVAGEHNIEETEHTEQKRNVIRIIPHHNYNAAINKYNHDIALLELDEPLVLNSYVTPICIADKEYTNIFLKFGSGYVSGWGRVFHKGYSALVLQYLRVPLVDRATCLESTKFTIYDNMFCAGFHEGGRDSCQGDSGGPHVTEVEGTSFLTGIISWGEECAMKGKYGIYTKVSEYVNWIKNKTKLT
Turning to B2, the K0.5-mut/K0.5-wt in data set [3] is > 517 fold.

B3: FIXa R318Y/R338E/R403E/T412A (protein)
chain 1: YNSGKLEEFVQGNLERECMEEKCSFEEAREVFENTERTTEFWKQYVDGDQCESNPCLNGGSCKDDINSYECWCPFGFEGKNCELDVTCNIKNGRCEQFCKNSADNKVVCSCTEGYRLAENQKSCEPAVPFPCGRVSVSQTSKLTR
chain 2: VVGGEDAKPGQFPWQVVLNGKVDAFCGGSIVNEKWIVTAAHCVETGVKITVVAGEHNIEETEHTEQKRNVIRIIPHHNYNAAINKYNHDIALLELDEPLVLNSYVTPICIADKEYTNIFLKFGSGYVSGWGRVFHKGYSALVLQYLRVPLVDRATCLESTKFTIYNNMFCAGFHEGGRDSCQGDSGGPHVTEVEGTSFLTGIISWGEECAMKGKYGIYTKVSEYVNWIKEKAKLT
Regarding B3, in data set [3], the K0.5-mut/K0.5-wt is > 517 fold.

B4: FIXa D104N/K106S/N260S/R318Y/R338E/R403E/E410N (protein)
chain 1: YNSGKLEEFVQGNLERECMEEKCSFEEAREVFENTERTTEFWKQYVDGDQCESNPCLNGGSCKDDINSYECWCPFGFEGKNCELDVTCNIKNGRCEQFCKNSANNSVVCSCTEGYRLAENQKSCEPAVPFPCGRVSVSQTSKLTR
chain 2: VVGGEDAKPGQFPWQVVLNGKVDAFCGGSIVNEKWIVTAAHCVETGVKITVVAGEHNIEETEHTEQKRNVIRIIPHHNYSAAINKYNHDIALLELDEPLVLNSYVTPICIADKEYTNIFLKFGSGYVSGWGRVFHKGYSALVLQYLRVPLVDRATCLESTKFTIYNNMFCAGFHEGGRDSCQGDSGGPHVTEVEGTSFLTGIISWGEECAMKGKYGIYTKVSEYVNWIKNKTKLT
As to B4, the K0.5-mut/K0.5-wt in data set [3] was > 517 fold.

B5: FIXa R318Y/R338E/R403E/E410N/T412A (protein)
chain 1: YNSGKLEEFVQGNLERECMEEKCSFEEAREVFENTERTTEFWKQYVDGDQCESNPCLNGGSCKDDINSYECWCPFGFEGKNCELDVTCNIKNGRCEQFCKNSADNKVVCSCTEGYRLAENQKSCEPAVPFPCGRVSVSQTSKLTR
chain 2: VVGGEDAKPGQFPWQVVLNGKVDAFCGGSIVNEKWIVTAAHCVETGVKITVVAGEHNIEETEHTEQKRNVIRIIPHHNYNAAINKYNHDIALLELDEPLVLNSYVTPICIADKEYTNIFLKFGSGYVSGWGRVFHKGYSALVLQYLRVPLVDRATCLESTKFTIYNNMFCAGFHEGGRDSCQGDSGGPHVTEVEGTSFLTGIISWGEECAMKGKYGIYTKVSEYVNWIKNKAKLT
In the case of B5, the KM in data set [1] is 0.0335 µM. In addition, the K0.5-mut/K0.5-wt in data set [3] is > 517 fold.

B6: FIXa R318Y/R338E/T412A (protein)
chain 1: YNSGKLEEFVQGNLERECMEEKCSFEEAREVFENTERTTEFWKQYVDGDQCESNPCLNGGSCKDDINSYECWCPFGFEGKNCELDVTCNIKNGRCEQFCKNSADNKVVCSCTEGYRLAENQKSCEPAVPFPCGRVSVSQTSKLTR
chain 2: VVGGEDAKPGQFPWQVVLNGKVDAFCGGSIVNEKWIVTAAHCVETGVKITVVAGEHNIEETEHTEQKRNVIRIIPHHNYNAAINKYNHDIALLELDEPLVLNSYVTPICIADKEYTNIFLKFGSGYVSGWGRVFHKGYSALVLQYLRVPLVDRATCLESTKFTIYNNMFCAGFHEGGRDSCQGDSGGPHVTEVEGTSFLTGIISWGEECAMKGKYGIYTKVSRYVNWIKEKAKLT
Consider B6, for which, in data set [3], the K0.5-mut/K0.5-wt was 396 fold.

B7: FIXa N260S/R318Y/R338E/R403E/E410N (protein)
chain 1: YNSGKLEEFVQGNLERECMEEKCSFEEAREVFENTERTTEFWKQYVDGDQCESNPCLNGGSCKDDINSYECWCPFGFEGKNCELDVTCNIKNGRCEQFCKNSADNKVVCSCTEGYRLAENQKSCEPAVPFPCGRVSVSQTSKLTR
chain 2: VVGGEDAKPGQFPWQVVLNGKVDAFCGGSIVNEKWIVTAAHCVETGVKITVVAGEHNIEETEHTEQKRNVIRIIPHHNYSAAINKYNHDIALLELDEPLVLNSYVTPICIADKEYTNIFLKFGSGYVSGWGRVFHKGYSALVLQYLRVPLVDRATCLESTKFTIYNNMFCAGFHEGGRDSCQGDSGGPHVTEVEGTSFLTGIISWGEECAMKGKYGIYTKVSEYVNWIKNKTKLT
As to B7, the K0.5-mut/K0.5-wt in data set [3] was > 517 fold.

B8: FIXa D104N/K106S/K228N/K247N/N249S (protein)
chain 1: YNSGKLEEFVQGNLERECMEEKCSFEEAREVFENTERTTEFWKQYVDGDQCESNPCLNGGSCKDDINSYECWCPFGFEGKNCELDVTCNIKNGRCEQFCKNSANNSVVCSCTEGYRLAENQKSCEPAVPFPCGRVSVSQTSKLTR
chain 2: VVGGEDAKPGQFPWQVVLNGKVDAFCGGSIVNEKWIVTAAHCVETGVNITVVAGEHNIEETEHTEQNRSVIRIIPHHNYNAAINKYNHDIALLELDEPLVLNSYVTPICIADKEYTNIFLKFGSGYVSGWGRVFHKGRSALVLQYLRVPLVDRATCLRSTKFTIYNNMFCAGFHEGGRDSCQGDSGGPHVTEVEGTSFLTGIISWGEECAMKGKYGIYTKVSRYVNWIKEKTKLT
The protein B8 returned a K0.5-mut/K0.5-wt in data set [3] of 2.1 fold.

B9: FIXa Y155F/K228N/K247N/N249S (protein)
chain 1: YNSGKLEEFVQGNLERECMEEKCSFEEAREVFENTERTTEFWKQYVDGDQCESNPCLNGGSCKDDINSYECWCPFGFEGKNCELDVTCNIKNGRCEQFCKNSADNKVVCSCTEGYRLAENQKSCEPAVPFPCGRVSVSQTSKLTR
chain 2: VVGGEDAKPGQFPWQVVLNGKVDAFCGGSIVNEKWIVTAAHCVETGVNITVVAGEHNIEETEHTEQNRSVIRIIPHHNYNAAINKYNHDIALLELDEPLVLNSYVTPICIADKEYTNIFLKFGSGYVSGWGRVFHKGRSALVLQYLRVPLVDRATCLRSTKFTIYNNMFCAGFHEGGRDSCQGDSGGPHVTEVEGTSFLTGIISWGEECAMKGKYGIYTKVSRYVNWIKEKTKLT
In data set [3], B9 registered a K0.5-mut/K0.5-wt of 1.4 fold.

B10: FIXa R318Y/R338E/E410N/T412V (protein)
chain 1: YNSGKLEEFVQGNLERECMEEKCSFEEAREVFENTERTTEFWKQYVDGDQCESNPCLNGGSCKDDINSYECWCPFGFEGKNCELDVTCNIKNGRCEQFCKNSADNKVVCSCTEGYRLAENQKSCEPAVPFPCGRVSVSQTSKLTR
chain 2: VVGGEDAKPGQFPWQVVLNGKVDAFCGGSIVNEKWIVTAAHCVETGVKITVVAGEHNIEETEHTEQKRNVIRIIPHHNYNAAINKYNHDIALLELDEPLVLNSYVTPICIADKEYTNIFLKFGSGYVSGWGRVFHKGYSALVLQYLRVPLVDRATCLESTKFTIYNNMFCAGFHEGGRDSCQGDSGGPHVTEVEGTSFLTGIISWGEECAMKGKYGIYTKVSRYVNWIKNKVKLT
In data set [3], B10 had a K0.5-mut/K0.5-wt of 252 fold.

B11: FIXa Y155F/N260S/R318Y/R338E/R403E/E410N (protein)
chain 1: YNSGKLEEFVQGNLERECMEEKCSFEEAREVFENTERTTEFWKQYVDGDQCESNPCLNGGSCKDDINSYECWCPFGFEGKNCELDVTCNIKNGRCEQFCKNSADNKVVCSCTEGYRLAENQKSCEPAVPFPCGRVSVSQTSKLTR
chain 2: VVGGEDAKPGQFPWQVVLNGKVDAFCGGSIVNEKWIVTAAHCVETGVKITVVAGEHNIEETEHTEQKRNVIRIIPHHNYSAAINKYNHDIALLELDEPLVLNSYVTPICIADKEYTNIFLKFGSGYVSGWGRVFHKGYSALVLQYLRVPLVDRATCLESTKFTIYNNMFCAGFHEGGRDSCQGDSGGPHVTEVEGTSFLTGIISWGEECAMKGKYGIYTKVSEYVNWIKNKTKLT
For the protein B11, the K0.5-mut/K0.5-wt in data set [3] came out at 501 fold.

B12: FIXa K228N/K247N/N249S/R318Y/R338E/R403E/E410N (protein)
chain 1: YNSGKLEEFVQGNLERECMEEKCSFEEAREVFENTERTTEFWKQYVDGDQCESNPCLNGGSCKDDINSYECWCPFGFEGKNCELDVTCNIKNGRCEQFCKNSADNKVVCSCTEGYRLAENQKSCEPAVPFPCGRVSVSQTSKLTR
chain 2: VVGGEDAKPGQFPWQVVLNGKVDAFCGGSIVNEKWIVTAAHCVETGVNITVVAGEHNIEETEHTEQNRSVIRIIPHHNYNAAINKYNHDIALLELDEPLVLNSYVTPICIADKEYTNIFLKFGSGYVSGWGRVFHKGYSALVLQYLRVPLVDRATCLESTKFTIYNNMFCAGFHEGGRDSCQGDSGGPHVTEVEGTSFLTGIISWGEECAMKGKYGIYTKVSEYVNWIKNKTKLT
Consider B12, for which, in data set [1], the KM was found to be 0.0558 µM. Moreover, the K0.5-mut/K0.5-wt in data set [3] was > 517 fold.

B13: FIXa D104N/K106S/Y155F/K228N/K247N/N249S (protein)
chain 1: YNSGKLEEFVQGNLERECMEEKCSFEEAREVFENTERTTEFWKQYVDGDQCESNPCLNGGSCKDDINSYECWCPFGFEGKNCELDVTCNIKNGRCEQFCKNSANNSVVCSCTEGYRLAENQKSCEPAVPFPCGRVSVSQTSKLTR
chain 2: VVGGEDAKPGQFPWQVVLNGKVDAFCGGSIVNEKWIVTAAHCVETGVNITVVAGEHNIEETEHTEQNRSVIRIIPHHNYNAAINKYNHDIALLELDEPLVLNSYVTPICIADKEYTNIFLKFGSGYVSGWGRVFHKGRSALVLQYLRVPLVDRATCLRSTKFTIYNNMFCAGFHEGGRDSCQGDSGGPHVTEVEGTSFLTGIISWGEECAMKGKYGIYTKVSRYVNWIKEKTKLT
B13 came in with a K0.5-mut/K0.5-wt in data set [3] of 1.6 fold.

B14: FIXa R318Y/R338E/R403E/E410N/T412V (protein)
chain 1: YNSGKLEEFVQGNLERECMEEKCSFEEAREVFENTERTTEFWKQYVDGDQCESNPCLNGGSCKDDINSYECWCPFGFEGKNCELDVTCNIKNGRCEQFCKNSADNKVVCSCTEGYRLAENQKSCEPAVPFPCGRVSVSQTSKLTR
chain 2: VVGGEDAKPGQFPWQVVLNGKVDAFCGGSIVNEKWIVTAAHCVETGVKITVVAGEHNIEETEHTEQKRNVIRIIPHHNYNAAINKYNHDIALLELDEPLVLNSYVTPICIADKEYTNIFLKFGSGYVSGWGRVFHKGYSALVLQYLRVPLVDRATCLESTKFTIYNNMFCAGFHEGGRDSCQGDSGGPHVTEVEGTSFLTGIISWGEECAMKGKYGIYTKVSEYVNWIKNKVKLT
For the protein B14, in data set [1], the KM was 0.0443 µM. For the same protein, in data set [3], the K0.5-mut/K0.5-wt was > 517 fold.
